Assays:
[1] = tested on: NK cell-depleted PBMC cultures; experiment: EBV regression assay, complete or NK cell-depleted PBMC; assay type: cell-based, human; details: 14 days
Source text: (§1) FIG. 16 provides CD3^+ T cell counts from the NK cell-depleted PBMC regression assay after 14 days of culture measured by flow cytometry. Antibodies (in μg/mL) and CsA (in μM) were given in combination with EBV supernatants (except the negative control=medium w/o EBV). Dotted horizontal line was set to the condition ‘medium+EBV’. Data are shown as mean+SEM (n=4).
as §1, with “17” for “16”, “CD19^+ B cell counts from the PBMC regression assay after 14 days of culture measured by flow cytometry. Antibodies (in μg/mL) and CsA (in μM) were given in combination with EBV supernatants (except the negative control=medium w/o EBV). Dotted horizontal line was set to the condition ‘medium+EBV’. Data are shown as mean+SEM (n=4); and CD19^+ B” for “CD3^+ T”
All conditions except ‘medium w/o EBV’ were incubated with EBV supernatant and respective compound or antibodies. […] Looking at the CD19+ B cell proliferation (FIG. 3), there was an obvious increase in CD19+ B cell counts when PBMC were incubated with EBV supernatant compared to PBMC cultured with medium only (medium w/o EBV). […]

[2] = tested on: EBV-seronegative EBV-B cell/T cell co-cultures; experiment: EBV-B cell/T cell co-culture, EBV-seronegative donors; assay type: cell-based, human
kidney allografts = details: cited from earlier work
CD40 [3] = target: T1, CD40 (Homo sapiens, UniProt P25942); experiment: Phase 1 single-ascending dose study in healthy subjects and rheumatoid arthritis patients; assay type: in vivo; details: for safety and tolerability: interim
T1 construct: CD40 occupancy on peripheral B cells measuring free CD40 and total CD40; endogenous in cells; host or cells: peripheral / whole blood B cells of healthy subjects and rheumatoid arthritis patients (in vivo)
Protocol: The safety, tolerability, PK and PD activity of mAb1 are being assessed in an ongoing, randomized, double-blind, placebo-controlled, single-ascending dose study of mAb1 in healthy subjects and patients with rheumatoid arthritis (RA). A total of 48 subjects have been enrolled: 36 healthy subjects who received single doses of mAb1 up to 3 mg/kg IV or S.C., and 12 patients with RA, 6 of whom received single doses of mAb1 at 10 mg/kg IV. […] An investigation of the 30 mg/kg IV dose is ongoing in RA patients. As this study is still ongoing, all clinical data are preliminary in nature and based on interim analyses conducted up to a dose of 10 mg/kg in RA patients.
In healthy subjects as well as in patients with rheumatoid arthritis, after single IV or SC administration, CFZ533 PK profiles were consistent with target mediated disposition resulting in non-linear PK profiles and more rapid clearance when CD40 receptor occupancy dropped below approximately 90%. […]

[4] = in vivo
CD40 [5] = target: T1, CD40; experiment: CD40 receptor occupancy and CD154-induced CD69 expression in human whole blood cultures; assay type: cell-based; details: CD20 positive B cells
Source text: In addition, mAb1 can disrupt established germinal centers (GCs) in vivo. The CD40 receptor occupancy and functional activity were simultaneously assessed in vitro using human whole blood cultures. Functional activity was quantified via CD154-induced expression of CD69 (the activation marker) on CD20 positive cells (B cells) and CD40 occupancy was monitored using fluorescently labeled mAb1.

EBV infections = experiment: Clinical kidney transplantation data; assay type: in vivo, human; details: CNI-free therapy in kidney transplantation
[6] = 10 μg/mL (priming only; priming and recall) and 50 μg/mL (recall only)
[7] = single dose of 3 mg/kg (IV and SC)

T1 sequence (P25942 21-277): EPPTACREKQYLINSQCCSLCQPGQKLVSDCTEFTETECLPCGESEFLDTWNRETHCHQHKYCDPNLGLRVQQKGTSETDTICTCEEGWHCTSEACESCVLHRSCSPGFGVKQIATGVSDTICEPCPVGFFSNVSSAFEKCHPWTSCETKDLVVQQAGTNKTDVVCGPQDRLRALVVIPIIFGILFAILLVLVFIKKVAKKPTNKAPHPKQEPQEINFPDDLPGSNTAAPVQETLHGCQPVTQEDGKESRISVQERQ

CFZ533: fully human monoclonal Fc-silent, non-depleting anti-CD40 antibody (IgG1/K); heavy chain SEQ ID NO: 9, light chain SEQ ID NO: 10
CD19+ B cell counts [1]: decrease in CD19+ B cell counts compared to isotype control independently of NK cells
CD4+ T cell proliferation [2, 6]: slight not significant increase
CD8+ T cell proliferation [2, 6]: slight not significant increase
CD4+ T cell proliferation ([2]; 10-200 μg/mL, all three conditions): no effects
CD3+ T cell proliferation ([2]; 10-200 μg/mL, priming, recall, priming and recall, 11 days): no reducing effect
CD8+ T cell proliferation ([2]; all tested concentrations): no major effects
peripheral B cell depletion (kidney allografts; in vivo): no significant peripheral B cell depletion
survival of kidney allografts (kidney allografts; non-human primates): can prolong survival
disposition in Chinese subjects versus non-Chinese subjects (CD40 [3]; 3 mg/kg IV): generally similar
duration of target engagement (CD40 [3]; 3 mg/kg IV): about 4 weeks
duration of target engagement (CD40 [3]; 3 mg/kg SC): about 4 weeks
time of peak plasma concentration post-dose (CD40 [3]; 3 mg/kg SC, healthy subjects): 3 days
duration of full CD40 occupancy (CD40 [3]; 10 mg/kg IV, rheumatoid arthritis patients): 8 weeks
duration of target engagement (CD40 [3]; 30 mg/kg IV, rheumatoid arthritis patients): 16 weeks
decrease in total CD40 on peripheral B cells (CD40 [3]; healthy subjects): about 50%
rCD154-induced CD69 expression on B cells (CD40 [3]; human whole blood, during full CD40 occupancy): generally suppressed
extent of exposure (AUClast) versus dose (CD40 [3]; human, in vivo): increased more than the increase in dose
plasma concentration associated with full (>90%) CD40 occupancy on whole blood B cells (CD40 [3]; human, in vivo): 0.3 to 0.4 µg/mL
decrease in total CD40 on peripheral B cells (CD40 [3]; patients with rheumatoid arthritis): not confirmed
safety and tolerability (CD40 [3]; single 10 mg/kg, RA patients): safe and well tolerated
CD40 receptor occupancy below which clearance is more rapid (CD40 [3]; single IV or SC administration): approximately 90%
safety in Phase 1 study CCFZ533×2101 (CD40 [3]; single ascending doses 0.03 to 30 mg/kg i.v. and 3 mg/kg s.c.): did not reveal major safety concern
anti-KLH responses to the first KLH immunization (CD40 [3]; [7]): transiently suppressed
duration of full (>90%) receptor occupancy with anti-KLH suppression (CD40 [3]; [7]): 3-4 weeks
safety and tolerability (CD40 [3]; single doses up to 3 mg/kg, healthy volunteers): safe and well tolerated
inflection point of non-linear serum concentration-time profiles [4]: 10 to 20 µg/mL
CD40 occupancy required for full inhibition of rCD154-induced CD69 expression (CD40 [5]): Almost complete
increased incidence of EBV infections (EBV infections): not observed

Reference: patent publication US20220332836A1, “A METHOD FOR PREVENTING HUMAN VIRUS ASSOCIATED DISORDERS IN PATIENTS” (NOVARTIS AG, priority 2019, published 2022)
